{"source": "the DeepSol protein solubility set", "data": [{"assay": "soluble on expression in E. coli; label from the status in PepcDB or PDB records", "values": [{"sequence": "MGSDKIHHHHHHMLMSVTTENAPVQGQTTLQENSAGEGVYASLFEKINLTPASCLGDINDFLDDAALSEAPAAERLTAAMQVFMERIRQSGQRVEKLDKTLIDHHIAELDFQISRQLDAVMHHQEFQQVESLWRGLKQLVDNTDYRQNVKTEILDVAKDDLRQDFEDAPELIQSGLYWHTYTAEYDTPGGEPIGSVISAYEFDASPQDVALLRNISRVSAAAHMPFIGAVGPAFFLKETMEEVAAIKDIGNYFDRAEYIRWKAFRETDDARYIGLVMPRVLGRLPYGPDTVPVRSFNYVEQVKGPDHEKYLWTSAAFSFASNMVKSFVNNGWCVQIRGPQAGGAVKDLPIHLYDLGTGNQVKIPSEVMIPETREFEFASLGFIPLSYYKNRDYACFFSANSAQKPALYDTADATANSRINARLPYIFLLSRIAHYLKMIQRENIGTTKDRRLLELELNTWVRSLVTEMTDPGDELQASHPLRDASVVVEDIEDNPGFFRVKLYAVPHFQVEGMDVNLSLVSQMPKAKA", "soluble on expression in E. coli": "not soluble"}, {"sequence": "MGSDKIHHHHHHMLNDRARILLKTLVERYISEGEPVGSRTLSKHAGLDLSPASIRNIMSDLEEMGFVASPHTSAGRVPTPRGYRFFVDTLLTVRPLDQVSVNHLENSLAASDPQRLMTAASTLLSDLSQFAGLVMTPRRNPAFRQIEFLTLSDKRVLLIIVTMEGEVENRVIVTEQSYSAAALTEAANYFNQNFAGHSFDHVRSKLRDELGRMRDDITRLMAAAVDAGTQALDASQDNVVVSGSRKLLDVEELSSNMRSLRRLFDAFEKKTGLLQLLDQSRSAAGVQIFIGGESELLPLDECSLVTAPYSVDGVVVGTLGVVGPTRMAYERVVPIVDVTAKILSSALSQHK", "soluble on expression in E. coli": "not soluble"}, {"sequence": "MGSDKIHHHHHHMLNVSIVIPAWNEQERINDCLLNATRQTVMPHEVIVVDNRSTDSTVAVVEQFMKDHPEAPVKLLHQDDEQGLIPTRDYGLNHATGDILGRFDADCMIRPDWVEVVSGIFTEDPDAMGATGPVMYYDLPSRHFGLRGDNSTRKRIYRADDGQPLLFGSNMALRATAWREIADEVCQDKADVMHEDIDISLHLLGKDLKTVYCPRMIAGISARRMDTSPASFLNYMRRFKNTFNAHPQHYRKHKPEILITALYPVMHLLYPVWQKVLNTADINPAEAAWINEQMELAEQEGHELYDDTPTDEEWSEKHEE", "soluble on expression in E. coli": "not soluble"}, {"sequence": "MGSDKIHHHHHHMLSALWVSKTGLSAQDMNLTTISNNLANVSTTGFKRDRAEFQDLLYQIRRQPGGQSTQDSELPSGLQLGTGVRVVGTQKIFTPGSLQTTEQPLDMAVNGRGFFQVLLPDGTVSYTRDGSFHLNSDGQIVTSNGFALEPAIVVPNETQTFTVGQDGTVSVTTTGNAQPQVIGNIQTADFINPAGLQAIGNNLFLETGSSGAPQVGTPGLNGLGTVAQNTLENSNVNVVEELVNMITTQRAYEMNSKVISTADQMLSFVTQNL", "soluble on expression in E. coli": "not soluble"}, {"sequence": "MGSDKIHHHHHHMLSHEDNETLVRVGPGTPTGQFMRLYWLPFLPSSDLTVDGQPQRVRLLGEDLIAFRDSEGRVGLVDHVCPHRGAPLVFGRNENCGLRCVYHGWQFGVDGQVIDTPAEPAESRLKDKVRIRSYPCRERNGIVWAYMGEADANALPPLPNLEWNMVPLENVHFSFRVQECNWLQAVEGEIDSAHAPILHGRIDSQGAINEWTAKRDLRPVFECQRREFGISIASRRVLDDSHHYWRVNQFLFPFYTLVPPQSKYPELSGHAWVPVDDENTLCLMFSYTPAAPLYEKTRKLFEDGHAGRETGHASAHAFAPRPVTQPYAKYWTRFNLESAFQFDYDAQTKTWFSGLPGLWVQDAACQSGVAPIYDRRKENLGISDTGVAMTRRLLLENVRKLASERVSPVRVDDPDLWMVRAVSLTLPAGAPWQSDGAEHMRARLGADFGYTP", "soluble on expression in E. coli": "not soluble"}, {"sequence": "MGSDKIHHHHHHMLSKMEINKLAMKESMTLLACPICGGEFSFSEPNSFICKNHHGFDIAKPGYLHLLKQVHKTKYDQALFESRKKVIASGFFEKLIERVTEIIAETKKEEVVIYDAGSGEGSHLARVVKNLQEKGRHVQAIGLDIAKEGVKQAARDYPGIVWTVADLANCPTQTETADVILNILSPSNYEEFKRLLKTDGFLLKVVPEANYLRELREFIYVDEKSSYSNESVTSRLAEKLTVEYVERVTYKAPIANELFADFLEMTPLGWHIDKDKKSELLINPPKELTVDLKIIIANRAHLL", "soluble on expression in E. coli": "not soluble"}, {"sequence": "MGSDKIHHHHHHMLSRTADNLYWMTRYVERAENMARILDVSYRMSQLPRNGTDAAVEWEPALIISGQKPDFETRFEEITAGNVIAYMALDPENPSSIVSTLHAARENARAERFVLPQEMFEGLNATWLELQSLSYARLVDWGFREFFEWVKERSHQFLGTTIGTMLQTDGFHFTRLGTFIERADNTARLLDVKYHVLMPDENRLDEAVDYYQWGAVLRAMSALKAYRMVYRDTIKPRQVIDLLTLKREFPRSLHLCYENLHDLLEHLAPGAECTRLTGEMHAKLRYGRIQDITRRGLHRFLTDFITHNAAVSAEIGRTFHLVADIGVQTPVKEAKEAKRADDGGEAEEAGSVQQQRQ", "soluble on expression in E. coli": "not soluble"}, {"sequence": "MGSDKIHHHHHHMLSSAEKVKGQGVASAYRELVNLLEERYKNEIDMKINSFEKSDITHYHTVDFRFFLSTFFKKKRGVRVGYVHFLPETMEGSLKLPWIARVVFYKYLIGFYKRMDEIVVVNPSFIPKLTAYNIPAEKIHYIPNFVSKKSFFPISKGEKELARAKYEIPADKFTVIGIGQVQHRKGVLDFIEVAKQLPDVQFVWAGGFSFGKITSGYEELKKIYDNPPSNVKFIGIVDRSEMNSCINMADVFFMPSYNELFPMAILEAMSCDVPILLRNLDLYEEILDGYYVKEVDNPGFIRAIERLENDTNYYNEMLQASKRGAAYYSEDRLAEIWLDFYQGLLTKE", "soluble on expression in E. coli": "not soluble"}, {"sequence": "MGSDKIHHHHHHMLSVEKLACTHGDSHYLFDEVTFSLNPGERILISGYSGCGKSTLALLLSGLKESGKGQVLLNGSLIEPSDVGFLFQNPDLQFCMDTVAHELYFILENLQIEPEQMQDRSEFVLAQVGLKGFQNRLIYTLSQGEKQRLALATIFLKSPKLIILDEAFANLDQESASQLLQLVLNYQANNQSMLIVIDHLITYYQDIMDHYFWLEKRLTRVNFDYMLNRLNVFELEKKSHNTGDKLLSIKDFQVKLSKNKFISYLDFDLASGERLCLDGPSGVGKSSLFMGLLGLYRTKGKKQFTHRKQIPISFLFQNPLDQFIFSTVYDEIFQVCKDSNKARDILETINLWDKKQFSPFQLSQGQQRRLAIGSILASDSKLLLLDEPTYGQDAYHANMITTLLLSYCHKNHCGVIFTSHDPHLKECFATRFLEVSSCSI", "soluble on expression in E. coli": "not soluble"}, {"sequence": "MGSDKIHHHHHHMLTTLAIGNYRSINHLVLPLSQLNLVTGANGSGKSNLYKALRLLAETAQGGVVEALAREGGLDSTWWAGPETSARMRRGEVPIQGQHPSEVRRLRLGFATEDLGFAITLGLPIPLPYPSAFMLDPEIKCEAIWGAGAYRPSSLLVERKNALVRAREGNRWAVLDQHADSGESFFNIVGRPRQAPEIGDLRAFINSWRFYDHFRIDRDAPCRQPQLGTRSPVLHHDGRNLASALQTIIEIGDVEDLEEALNDAFPGSRLEINAPPGGLFSVRLHQHGLLRPLEGAELSDGTLRYLLLMAALLTPRPPSLMVLNEPETSLHADLLPALARLIIRASRRSQVWVVSHSAPLINALAACDGCNVLELEKIQGQTQLRGVGLLDEPLWRWAD", "soluble on expression in E. coli": "not soluble"}, {"sequence": "MGSDKIHHHHHHMLVYIGNGHYCYSNSTAMFLSSIGENVSPQLVEILTGVGLGAMIEYEKNLYFSMRDPDDGINYALNILGFTAEEHQQASDLDDPFPLLKQQIKQNPVILGPLDMGELTYHPNHKNLNGSDHYVLGYQMDNENIYVQDPAGFPFVPLSLDQFKKAWMAERIPYRKGINKYWSTAKKVVTLDNNEIYERAIDYFKRTYRKFEKVDIGLIGREAICFYADQLLNAPITADTIRHTTFFLFQLSARRANDYAMYFKDRHSHLSVLKTEQAKVFGICHSMSVNKDWKGISEKLMKLADLEDNFRLELLKVGY", "soluble on expression in E. coli": "not soluble"}, {"sequence": "MGSDKIHHHHHHMLWRLKGVPFVGFDVARVRGLYTSLGDGWTYLNSHQIPQVPERVASGVAAAFRTHAQISEVTSQPIAVDQLEAAREAVASLAGVDPDCVVLGPTRQFLAHTLARGLGGFVRRKAGVVLSRADADWLTAPFRSLDGVFSWAEPDLGTGMLPDWQYEKLVDGSTRLVVLSAAHPLLGTVAPVGKIVDKVRARSRAWVLVDATTYAAYRPLRLDEWEADIVMLDLGELGGPQISALIFRDTSMFPRLDRTVPLELPASSLPHGLLGGVPNLVRHLGNLDENAPSVVEAMGEMAKFHKGLFEHLVESLEGLHAVHIVGISGDAAGQDAAFLDRVPRLTFTMEGVPADMVYRRLVDNRLITTVSPADPLLEAMGVTEAGGSITIGLSPFSTYYEVDQLTRVLASLA", "soluble on expression in E. coli": "not soluble"}, {"sequence": "MGSDKIHHHHHHMLYNTDFLSRLTQGVKYLSSAWGLSSEAKLTLLTISENATFRIADENSGRNLIVRVHRPDYHTEAEILSELAWIDALRQDGVVVTPRPISANDGSLLQIFSDGETMRHAVAFEYMAGKEPDAESDLVHWYRTLGEINAKLHAHSRRWTRPENFIRKTWNFNRILGNGAYWGDWRDALGLKPDGKSVLERTHALLETQTSAYGYGEERFGLVHCDMRAANLLVDGDRLGVIDFDDCGLSWFAYDFAAAISFMEHEPFIPDLMAAWLEGYRRVAPLDAQHEAALPMFIMLRRMQLTAWIASHAETPTAQSMGTAYTDGTVALAECYLAEHR", "soluble on expression in E. coli": "not soluble"}, {"sequence": "MGSDKIHHHHHHMMDFYIKQIIIHQFSPNDTELVLSDTPLTLTPRIDDYFRKKLSKVFSDEAKRGYFGEDNVFMSHLQDDLYVSSCQIAQLWKEEFVISEDQKTNDLVFIQFDKDGMEHFAFLRISLKEQFAHVSENQEQPITITQNNLPSAAQTPDEALVVNKSSKQYYLIEKRIKHNGSFANYFSENLLQVQPEQSVKKSIKMVEQTAQKIAENFNKDDFSFQSKMKSAIYKNLEEEQELSPEKLADQLFDDNLTARLTFVDELKDAIPGPVQVSDIDHSRQIKKLENQKLSLSNGIELIVPNNVYQDAESVEFIQNPDGTYSILIKNIQDIQNK", "soluble on expression in E. coli": "not soluble"}, {"sequence": "MGSDKIHHHHHHMMDWLYRYPPLYPGILLKRYKRFFADVQLTSGEIVTAHCPNTGPMTGVSTPQSAVQLSKSDNLNRKLAYTLELIQVHDNEPTWVGINTFLPNRVVKLALAKYLFPELGEYSQIKGEVVYGLDKKSRVDFFLTGSDEERPIYLEVKNTTLSEGRLALFPDTETTRGQKHLRELMALLPLTRAVMLYFINRGDCTEFSPGDRTDPVYGKLLRDAIALGLEVLPCRFDISPEGIRYLGLAKLKI", "soluble on expression in E. coli": "not soluble"}, {"sequence": "MGSDKIHHHHHHMMFLPEQISKLNELETLVFDFIIKSPEEVQQMTIRDLASQAHVSTSTIVRLCTKLGFEGWSDLKFYLKNQLKEKTPEEQHYDNMLEFNMFLRRMNTDNYQAKLNNAAQMIAKADYTVFLGLGTSGSLSEYATKYFVNTGLRSFVISDPFQAVQVQGMGNVVAVIMSVSGETEQVVNKELEFKAGGAKIISITNNEDCTVAKLADYQLSYNLVNEWSKQYPLGNLTTQLPVLAILEILAHKSIDYHLKK", "soluble on expression in E. coli": "not soluble"}, {"sequence": "MGSDKIHHHHHHMMGLKAHAMVLEKFNQPLVYKEFEISDIPRGSILVEILSAGVCGSDVHMFRGEDPRVPLPIILGHEGAGRVVEVNGEKRDLNGELLKPGDLIVWNRGITCGECYWCKVSKEPYLCPNRKVYGINRGCSEYPHLRGCYSSHIVLDPETDVLKVSEKDDLDVLAMAMCSGATAYHAFDEYPESFAGKTVVIQGAGPLGLFGVVIARSLGAENVIVIAGSPNRLKLAEEIGADLTLNRRETSVEERRKAIMDITHGRGADFILEATGDSRALLEGSELLRRGGFYSVAGVAVPQDPVPFKVYEWLVLKNATFKGIWVSDTSHFVKTVSITSRNYQLLSKLITHRLPLKEANKALELMESREALKVILYPEG", "soluble on expression in E. coli": "soluble"}]}]}
